Test results reported in US20110190477A1 (G2 INFLAMMATION, published 2011).

Columns and labels:
Assay in all cases: flow cytometry on transiently transfected L1.2 cells
[1] = target: T1, chimeric receptor 1. HHHH (human, UniProt P21730 1-350)
T1 construct: Transiently expressed on mouse L1.2 cells
T1 chain: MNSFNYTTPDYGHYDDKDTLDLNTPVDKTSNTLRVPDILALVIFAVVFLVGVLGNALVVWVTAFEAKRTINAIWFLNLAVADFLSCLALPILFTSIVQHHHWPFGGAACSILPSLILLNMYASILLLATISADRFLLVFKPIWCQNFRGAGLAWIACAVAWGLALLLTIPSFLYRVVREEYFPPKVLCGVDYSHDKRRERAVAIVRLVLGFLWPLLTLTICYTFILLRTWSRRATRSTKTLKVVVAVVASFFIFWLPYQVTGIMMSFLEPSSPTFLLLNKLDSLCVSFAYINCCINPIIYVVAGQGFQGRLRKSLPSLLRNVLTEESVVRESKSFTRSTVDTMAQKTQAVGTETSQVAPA
Description: (§1) A series of chimeric receptors comprising segments of mouse and human C5aR were constructed to identify the region of the C5a receptor that the antibodies bound. […] Each recombinant vector (5 μg diluted in DMEM) encoding a different chimeric receptor was transfected into 5×10⁵ mouse L1.2 cells using Lipofectamine 2000 (Invitrogen). Cells were grown in DMEM or RPMI (Invitrogen) plus 10% foetal bovine serum (Hyclone). After 24 hours or 48 hours, cells were harvested by centrifugation at 1,500 rpm for 5 min and resuspended in FACS buffer (phosphate buffered saline plus 2% bovine serum albumin). For staining with hAb-Q, 0.5×10⁵ transfected cells were incubated with 5 or 10 μg/ml antibody in a volume of 50 μl per well at 4° C. for 20 minutes. Cells were pelleted as above and rinsed 3 times with 150 μl FACS buffer before addition of 50 μl FITC-conjugated anti-human IgG diluted 1:200 or 1:300 (Sigma, F1641). This mix was incubated for 20 min at 4° C. before cells were pelleted, washed with FACS buffer 3 times and finally resuspended in 150-200 μl FACS buffer. Samples were analysed on a FACS Calibur (BD Biosciences).
(§2) To confirm that the humanised antibody hAb-Q, which was derived from mouse mAb 7F3 by CDR grafting, and therefore should contain the same antigen-binding site, had the same staining pattern as 7F3, transiently transfected cells expressing the different chimeric human/mouse C5aR were stained with hAb-Q and analysed by flow cytometry. The pattern of staining by hAb-Q was identical to that observed with 7F3. There was no staining by the secondary antibody (anti-hIgG-FITC) alone.

[2] = target: T2, chimeric receptor 2. mHHH (mouse; human, UniProt P30993 1-39)
T2 construct: range 1-39; Transiently expressed on mouse L1.2 cells
T2 sequence: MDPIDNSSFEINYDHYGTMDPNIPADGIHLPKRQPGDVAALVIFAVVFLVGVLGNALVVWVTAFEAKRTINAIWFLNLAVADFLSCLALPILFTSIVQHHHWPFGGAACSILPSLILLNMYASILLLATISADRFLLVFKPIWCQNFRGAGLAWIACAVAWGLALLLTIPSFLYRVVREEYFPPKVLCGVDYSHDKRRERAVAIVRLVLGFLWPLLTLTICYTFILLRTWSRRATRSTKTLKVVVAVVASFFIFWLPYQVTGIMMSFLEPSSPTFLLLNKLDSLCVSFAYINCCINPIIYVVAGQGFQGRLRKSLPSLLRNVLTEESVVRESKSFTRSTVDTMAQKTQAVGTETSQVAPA
Description: as §1, §2

[3] = target: T3, chimeric receptor 3. mmHH (mouse; human, UniProt P30993 1-111)
T3 construct: range 1-111; Transiently expressed on mouse L1.2 cells
T3 sequence: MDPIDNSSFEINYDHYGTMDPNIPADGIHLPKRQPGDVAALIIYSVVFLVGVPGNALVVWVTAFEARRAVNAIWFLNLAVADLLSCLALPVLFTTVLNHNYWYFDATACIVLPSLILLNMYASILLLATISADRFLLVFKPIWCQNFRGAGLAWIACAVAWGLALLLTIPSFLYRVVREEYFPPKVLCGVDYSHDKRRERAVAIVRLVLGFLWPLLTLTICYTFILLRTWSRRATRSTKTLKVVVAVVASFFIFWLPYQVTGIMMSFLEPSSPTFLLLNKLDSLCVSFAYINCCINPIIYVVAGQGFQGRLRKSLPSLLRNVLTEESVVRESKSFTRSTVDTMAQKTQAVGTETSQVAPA
Description: as §1, §2

[4] = target: T4, chimeric receptor 8. HHHm (human; mouse, UniProt P30993 264-283, limits assumed)
T4 construct: Transiently expressed on mouse L1.2 cells
T4 sequence: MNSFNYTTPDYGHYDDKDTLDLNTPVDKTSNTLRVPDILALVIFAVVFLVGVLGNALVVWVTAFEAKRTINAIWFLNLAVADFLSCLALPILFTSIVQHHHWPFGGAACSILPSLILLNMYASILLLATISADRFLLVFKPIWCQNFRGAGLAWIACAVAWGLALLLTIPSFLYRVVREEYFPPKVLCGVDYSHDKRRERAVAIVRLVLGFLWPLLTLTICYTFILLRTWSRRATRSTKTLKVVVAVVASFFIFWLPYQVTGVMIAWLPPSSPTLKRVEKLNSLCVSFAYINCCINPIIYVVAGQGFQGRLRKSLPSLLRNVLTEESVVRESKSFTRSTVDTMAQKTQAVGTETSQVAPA
Description: as §1, §2

Measured: binding result

B1: humanized anti-C5aR antibody hAb-Q (antibody, human IgG4 S228P, kappa)
light: DVVMTQSPLSLPVTLGEPASISCRSSQSLVHSNGNTYLHWYLQKPGQSPQLLIYKVSNRFSGVPDRFSGSGSGTDFTLKISRVEAEDVGVYFCSQSTLVPLTFGQGTKLEIKRTVAAPSVFIFPPSDEQLKSGTASVVCLLNNFYPREAKVQWKVDNALQSGNSQESVTEQDSKDSTYSLSSTLTLSKADYEKHKVYACEVTHQGLSSPVTKSFNRGEC
heavy: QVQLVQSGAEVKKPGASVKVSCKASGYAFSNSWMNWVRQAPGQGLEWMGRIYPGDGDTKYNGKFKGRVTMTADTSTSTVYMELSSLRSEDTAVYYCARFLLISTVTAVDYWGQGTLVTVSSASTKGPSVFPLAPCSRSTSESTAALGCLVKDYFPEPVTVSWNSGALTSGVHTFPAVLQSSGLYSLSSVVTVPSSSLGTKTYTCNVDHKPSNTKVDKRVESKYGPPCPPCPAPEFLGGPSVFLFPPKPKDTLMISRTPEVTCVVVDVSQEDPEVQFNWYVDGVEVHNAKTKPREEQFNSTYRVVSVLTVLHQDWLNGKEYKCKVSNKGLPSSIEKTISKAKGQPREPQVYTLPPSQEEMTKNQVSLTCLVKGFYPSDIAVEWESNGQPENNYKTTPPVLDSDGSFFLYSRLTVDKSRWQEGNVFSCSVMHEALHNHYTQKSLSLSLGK
notes: IgG4 with the Ser228Pro mutation; also called antibody Q; anti-C5aR ab
binds: all assays above
